In patent US20230295308A1, “ANTAGONISTIC BIPARATOPIC ANTIBODIES THAT SPECIFICALLY BIND FIBROBLAST GROWTH FACTOR RECEPTOR 2 AND METHODS OF USING SAME” (The Broad Institute, Inc., priority 2020, published 2023):
Entries after “also recorded” stand apart in the source; their conditions may differ.

Tests used:
[1] = target: FGFR2 on SNU-16 gastric cancer cell line with FGFR2 amplification (UniProt P21802); assay: FACS on SNU-16 cells, % cells with FITC+ [cont.]
[2] = test system: FGFR2-PHDGH fusion expressing BaF3 cells; assay: ligand stimulated (FGF10) growth of FGFR2-PHGDH fusion expressing BaF3 cells (FIG. 10); type: cell-based; conditions: FGF10 present
Description: FIG. 10 is a graph showing that antibodies C, D, E and F have activity against ligand stimulated growth of FGFR2-PHDGH fusion expressing BaF3 cells.
The growth of BaF3 cells expressing an FGFR2-PHDGH fusion was assayed in the presence of FGF ligand, FGF10. Antibodies C, D, E and F inhibited ligand stimulated growth of FGFR2-PHDGH fusion expressing BaF3 cells (FIG. 10). Based on the results reported herein above, antagonistic biparatopic antibodies are made using the FGFR2 antibody combinations shown in FIG. 11A. These combinations result in increased growth inhibition effects in oncogenic or cancer cells (e.g., transformed BaF3 cells) that overexpressed […]. Thus, antibodies that bind to epitopes have increased inhibitory and killing effects against cancer cells. Designs for antagonistic biparatopic antibodies are shown at FIGS. 11B and 11C. Advantageously, including complementary mutations in VH-VL and CH1-CL on one-half of the biparatopic antibody results in preferential heterodimeric pairing between two different chains rather than chains from the other half of the same antibody. Alternatively, a linker method is used to create scFab, scFv, or DuoBodies. In this method two antibody chains are each generated in different cells and mixed in vitro. Such methods are known in the art and described, for example, by K. Ding et al, March 2017, Appl. Microbiol. […]

[3] = target: FGFR2b alpha IIIb antigen (UniProt P21802); assay: SPR (Biacore), antibody immobilized, FGFR2b alpha IIIb in flow
[4] = test system: FGFR2-PHDGH fusion expressing BaF3 cells; assay: growth of BaF3 cells expressing FGFR2-PHGDH fusion, absence of FGF ligands (FIG. 9); type: cell-based; conditions: absence of FGF ligands
Description: Antibodies A-F were tested to determine whether they could inhibit the ligand-induced growth of BaF3 cells expressing FGFR2IIIb. Antibodies C, D, and E, which bind FGFR2 Ig-2 and Ig-3, were effective in blocking ligand-induced growth of BaF3 cells expressing wild-type FGFR2IIIb (FIG. 8). The effects of antibodies A-F were then tested on BaF3 cells expressing FGFR2-PHDGH fusions. […] Antibody F inhibited the FGFR2-PHDGH activating fusion in BaF3 cells (FIG. 9).

[5] = target: FGFR2 on SNU-16 gastric cancer cell line with FGFR2 amplification (UniProt P21802); assay: FACS on SNU-16 cells, % No. of cells with FITC+ [cont.]
[6] = target: FGFR2 on SNU-16 gastric cancer cell line with FGFR2 amplification (UniProt P21802); assay: FACS on SNU-16 cells, % cells with FITC+ against log antibody concentration; Kd printed in the legend box [cont.]
[7] = target: FGFR2b alpha IIIb (Homo sapiens, UniProt P21802); assay: Surface Plasmon Resonance (SPR) binding; conditions: FGFR2b alpha IIIb antigen
From the text: FIGS. 17A-17C provide a schematic and tabular data related to assessments made to compare the avidity of biparatopic antibodies to that of their parental (bivalent monospecific) antibodies.
Surface Plasmon Resonance (SPR) as known in the art was used to determine the binding affinities of biparatopic antibodies. The SPR-based binding method involves immobilization of a ligand (antibody) on the surface of a sensor chip. The binding partner of interest or an analyte (FGFR2 ECD) flow through the flow channel. Different concentrations of an analyte flow over the ligand, and the interactions of ligand-analyte can be characterized. The SPR signal originates from changes in the refractive index of the […] at the surface of the sensor chip. The increase in mass associated with a binding event causes a proportional increase in the refractive index, which is observed as a change in response-resonance signal. In brief, for the experiments using the antibodies described herein, the SPR assay was carried out by immobilizing antibodies (used as […]) at a concentration ranging from 1-1000 nM and flow-through FGFR2b alpha IIIb antigen (used as […]). The antibody kinetic data for the interaction with FGFR2b alpha IIb antigen were fitted to the 2-state and 1-1 binding models using Biocore software. The mean and standard deviation KD values are derived from at least three independent runs.
Using SPR, the kinetics of 6 monospecific and 13 biparatopic antibodies for binding to a single antigen, FGFR2b alpha IIb, was measured so as to compare avidity of the biparatopic antibodies to their parental antibodies. Without wishing to be bound by theory, it was expected that the biparatopic antibodies would bind to the FGFR2 antigen more tightly than their parental antibodies and that the tighter binding biparatopic antibodies among the antibodies that were assessed would be more efficient in blocking FGFR2 dimerization (FIG. 17A), thereby leading to inhibition or blocking of constitutive FGFR2 signaling and/or oncogenic transformation. […]

[8] = target: FGFR2b alpha IIIb antigen (UniProt P21802); assay: SPR (Biacore), antibody on chip, FGFR2b alpha IIIb antigen
[9] = test system: BaF3 cells overexpressing FGFR2-PHGDH; assay: combination of BGJ398 and anti-FGFR2 bivalent antibody, isobolograms and Loewe scores (FIGS. 14, 15); type: cell-based; conditions: absence of FGF10, treated for 5 days
From the text: FIGS. 14B-14D provide isobolograms showing synergy between FGFR inhibitor and the anti-[…] bivalent antibody on the different days and supporting the results shown in FIG. 14A. FIG. 14B corresponds to 3 days after treatment with the BGJ398 inhibitor; FIG. 14C corresponds to 4 days after treatment with the BGJ398 inhibitor; and FIG. 14D corresponds to 5 days after treatment with the BGJ398 inhibitor. FIG. 14E provide Loewe scores showing synergy between the FGFR inhibitor and the anti-FGF2 bivalent antibody on the different days and supporting the results shown in FIG. 14A.
FIG. 15A presents charts showing synergy between the FGFR2 small molecule inhibitor BGJ398 and an anti-FGFR2 bivalent antibody (Antibody D) in the presence of FGF ligand (+FGF) in a cell-based assay using BaF3 cells overexpressing an FGFR2 fusion molecule (FGFR2-PHGDH) after 3, 4 and 5 days of treatment with the inhibitor and the antibody. […] FIGS. 15B-15D provide isobolograms showing synergy between the FGFR inhibitor and the anti-FGF2 bivalent antibody on the different days and supporting the results shown in FIG. 15A. FIG. 15B corresponds to 3 days after treatment with the BGJ398 inhibitor; FIG. 15C corresponds to 4 days after treatment with the BGJ398 inhibitor; and FIG. 15D corresponds to 5 days after treatment with the BGJ398 inhibitor. […]

[10] = target: FGFR2 on SNU-16 gastric cancer cell line with FGFR2 amplification (UniProt P21802); assay: row 'Kd (nM) (FACS)'; FACS on SNU-16 cells
[11] = target: T1, FGFR2IIIb; assay: row 'Kd (nM) (patent)', value quoted from the source patent; method: solution equilibrium titration (SET)/ELISA+ECL-FGFR2IIIb
T1 construct: also called purified FGFR2IIIb
T1 chain: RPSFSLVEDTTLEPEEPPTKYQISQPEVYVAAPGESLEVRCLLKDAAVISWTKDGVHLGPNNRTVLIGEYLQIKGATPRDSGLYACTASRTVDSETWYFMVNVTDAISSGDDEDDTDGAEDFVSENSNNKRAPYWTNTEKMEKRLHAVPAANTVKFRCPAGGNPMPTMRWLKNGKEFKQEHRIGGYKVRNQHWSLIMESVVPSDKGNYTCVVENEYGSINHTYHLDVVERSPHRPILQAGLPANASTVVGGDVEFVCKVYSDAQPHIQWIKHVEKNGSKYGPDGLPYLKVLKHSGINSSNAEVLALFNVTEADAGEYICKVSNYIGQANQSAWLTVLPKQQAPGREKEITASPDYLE

- EC50 (read off the curve) [1]: 1 µg/mL
- Binding Stoichiometry [3]: 2.1
- EC50 (read off the curve) [5]: 1 µg/mL
- Kd [6]: 8.81 nM
- Kd [7]: 7.5 nM
- Kd [8]: 7.5 nM
- Kd [10]: 8.81 nM
- Kd [11]: 5.6 nM
B1: 12433 (antibody, V domains shown)
VH: QVQLVQSGAEVKKPGESLKISCKGSGYSFTNYYIHWVRQMPGKGLEWMGAIYPDNSDTTYSPSFQGQVTISADKSISTAYLQWSSLKASDTAMYYCARGADIWGQGTLVTVSS
VL: DIQMTQSPSSLSASVGDRVTITCRASQDIDPYLSNWYQQKPGKAPKLLIYDASNLQSGVPSRFSGSGSGTDFTLTISSLQPEDFATYYCQQTTSHPYTFGQGTKVEIK
notes: the duobody scheme implies IgG1 with K409R or F405L; also called Antibody F; N12433
- inhibition of ligand stimulated growth of FGFR2-PHGDH fusion expressing BaF3 cells [2]: have activity; also recorded: inhibited
- inhibitory activity against the FGFR2-PHGDH activating fusion in BaF3 cells [4]: inhibitory activity; also recorded: inhibited
- synergy with BGJ398 in inhibiting FGFR2-PHGDH driven BaF3 cell growth [9]: synergizes
